What was measured:
[1] = molecular target: RSV F single-chain double mutant with fibritin trimerization domain (SC-DM: N67I, S215P) (respiratory syncytial virus strain A2 (subgroup A) | not stated); test: SEC-MALS + native gel or EMSA; purified protein; SEC-MALS: 40 μg on TSK-Gel G3000SWxl in 150 mM NaPi, 50 mM NaCl, pH 7.0; NativePAGE Bis-Tris gel
[2] = molecular target: RSV F single-chain triple mutant with fibritin trimerization domain (SC-TM: N67I, S215P, E487Q) (respiratory syncytial virus strain A2 (subgroup A) | not stated); test: as above
[3] = molecular target: Soluble, stabilized processed RSV F variant with fibritin motif (PR-TM: N67I, S215P, D486N) (respiratory syncytial virus strain A2 (subgroup A) | not stated); test: SDS-PAGE without reducing agents and without boiling, Western blot; samples treated with standard 0.1% SDS buffer at room temperature

## RSV F single-chain double mutant with fibritin trimerization domain (SC-DM: N67I, S215P) (domain or fragment)
[1]
  stoichiometry N: 3

## RSV F single-chain triple mutant with fibritin trimerization domain (SC-TM: N67I, S215P, E487Q) (domain or fragment)
[2]
  stoichiometry N: 3

## Soluble, stabilized processed RSV F variant with fibritin motif (PR-TM: N67I, S215P, D486N) (domain or fragment)
[3]
  percent monomerized by 0.1% SDS: 50%

From article PMC4569726
